A short description of the data set: soluble on expression in E. coli; label from the status in PepcDB or PDB records.
“HMSSLQRASVSFNKPGHIPFGAVQGYAPGGVPAYSNKHDHYFSGERNIEDNIFFGFKYQCVEFARRWLLVRKGLLLPDVNWACHIFQLKEVRDAATTESFAVLQVRNGTTTKPEADALLVYPSTDANPVGHVGTITEVGDDYVCVADQNYRFHKWESSCAYKLKLDHRDGIWTIIDDIDADEIEIPLGWLTFPGRANRPEGAPPVALHPSLHFKEPPKPYLLRRNFLPTESKANWLDMNNPAERLFVEEFGMDVSRTRLEEKVVSYYESNHEFHLRCVAYGTQLHAIFMEATAQVIESDEKLRLFAIPEEFWPRIRHSWKYQQTYISGRFDFAFNNETGEVKCFEYNADSASTLLECGLIQQKWAESVGLDKQDTRGSGFAVERNLKMAWANSGATGRVHFCVDEEREEQYTALYCMQAAEAVGLEGKLCILFDEFRFDDNGHVVDSDGVRVRNVWKTWMWESAITDYYAAREERGENWKPSPKDKVRLCDLLLGDDWEILYFEPMWKVIPSNKAILPMIYHNHPEHPAILKAEYELTDELRKHGYAKKPIVGRVGSNVIITSGDGVVHAESGGKYGKRNMIYQQLFELKKQDDYYAIIGGWMIGDAFSGTGIREDKSVITGVDSPFAAVRIKTDKLPHPVTLKDIDKMAEDE”: the “soluble on expression in E. coli” value was “soluble”.

As to “SNQEKLAKLQAQVRIGGKGTARRKKKVVHRTATADDKKLQSSLKKLAVNNIAGIEEVNMIKDDGTVIHFNNPKVQASLSANTFAITGHAEAKPITEMLPGILSQLGADSLTSLRKLAEQFPRQVLDSKAPKPEDIDEEDDDVPDLVENFDEASKNEAN”, the “soluble on expression in E. coli” value is listed as “soluble”.

Turning to “SEEFLQRAKSKLNRSKRLEKVHVVIGPKSCDLDSLISTFTYAYFLDKVSPPGVLCLPVLNIPRTEFNYFTETRFILEELNISESFHIFRDEINLHQLNDEGKLSITLVGSSVLASEDKTLESAVVKVINPVEQSDANVEFRESSSSLVLKEILQEAPELITEQLAHRLRGSILFKWMTMESEKISEKQEEILSILEEKFPNLPPREDIINVLQETQFSAQGLSIEQTMLKDLKELSDGEIKVAISTVSMNLEVRVGMLF”, the “soluble on expression in E. coli” value is “soluble”. The entry for “QVQLKESGPGLVAPSQSLSITCTVSGFSLTDYGVDWVRQPPGKGLEWLGMIWGDGSTDYNSALKSRLSITKDNSKSQVFLKMNSLQTDDTARYYCVRDPADYGNYDYALDYWGQGTSVTVSSAKTTPPSVYPLAPGSAAQTNSMVTLGCLVKGYFPEPVTVTWNSGSLSSGVHTFPAVLQSDLYTLSSSVTVPSSTWPSETVTCNVAHPASSTKVDKKIVPRDCG” is “soluble”. The entry for “GPGSMSTMAASRSDTPAPVHEMSMERLRREYVSLKSTSYSLTVEESHLIRKIETLREESVRAVLNAEMKEEQVSNQLFRRLDGAEREVQRYQALLKEEESEAESLSGRIKEMRSQQTEVENALEERQEYLLMNLQRKLLDMARKKTAVEQELMAERQKYLDVLVTRLNMLRGRGVGSSTESSVTIHSQPSPAEANTVPVAKHLDVPLPTTAAPHISTPLLRTGVPLGDNHGMLPAEKPLREDAHTDAGLPLPFVLSPAISAQKKPKDGVIVNASRGNTSSTSGRLSASTTPLSADLTPRSSHSSETHHAVVALERKLNQLLLEQAAAMQRTSATEKQCAVLTAKLHAVQEATFLDRARASKMKEELEKARARLSEVKARDRSGIPFSPLDDTSVMSGSNASFDNSSPLVLSSLSLRERTRELLSSVPQPNANERPC” is “not soluble”; for “GPGSMLHIDFCIAADAQEALEESGKPNTATVAVPIILEKEVLKLLAPPVCSSDGGFEYDLNATRTLLGAKGATAAYIVVRTAPSTQYVVIYVSDTTSAKNRMLYSTGLSRVVEATPHAQKRTVRISSVSELLPSLFEAESKKVKEALMTESERHHAAIARMEVAPQPVALPGVAVQITTDADDGLSQFAGGAVEVATFKIEAGQLQLDKTVAQLNGNLDQVKSILTDADPRFVLLRYPSPKTQLAEAVMVYVCPPTCSPKIKIQYASSAAAFREQALRHKIQLAHKVETDTTATLADDVRSAFEPFPSADARKTHGRLSSCPPTSWAPKGHSMLI” it is “soluble”.

“MSLSIASADRWSDPMPTTATTFEEFRQRVDYSLLQALKPDPEATSDGNDHRPRPVFSGHWVPVRPTPIPEPKYVAHSFILFAELGISDDLAHNSDFTRLFSGDASVAAEPMHSWGWATGYALSIYGTEYIQQCPFGTGNGYGDGRAMSIVEGVFEGQRWEMQLKGGGPTPYCRGADGRAVLRSSVREFLAQEFMHALGVPTSRSLTLYRSEAETVRRPWYSDHSRSFDPDVMVDNQAAISTRVAPSFLRVGQIELFARRARDNAHPNAHDELRLIVQHLIDRNYRAEIDATLPFHQQVLELARLFRGRLTALVANWMRVGYCQGNFNSDNCAAGGYTLDYGPFGFCELFDPRFQPWTGGGAHFSFFNQPAAAEANYRMFWRSLRTLLEGDDAAQRELDQLNEGFAVAMQQQLEAMWASKLALPAYDETLVTELLQLLVAAKADYTKAFRLLSTIPDHVAELHPSFYLPSSEDLDQRWQTWLQRWRERITANGDLEETSAAMRRVNPAITWREWLIAPAYQQAEQGDNSLVLELQTLFSSPYSAPSTELAARYDQLRPQQFFSAGGIAHYSCSSEGHHHHHH”: the “soluble on expression in E. coli” value is “not soluble”. The entry for “SNAMLDITTITRQNVTSVVGYYSDAKDDYYSKDSSFTSWQGTGAEALGLSGDVESARFKELLVGEIDTFTHMQRHVGDAKKERLGYDLTFSAPKGVSMQALIHGDKTIIEAHEKAVAAAVREAEKLAQARTTRQGKSVTQNTNNLVVATFRHETSRALDPDLHTHAFVMNMTQREDGQWRALKNDELMRNKMHLGDVYKQELALELTKAGYELRYNSKNNTFDMAHFSDEQIRAFSRRSEQIEKGLAAMGLTRETADAQTKSRVSMATREKKTEHSREEIHQEWASRAKTLGIDFDNREWQG” is “soluble”; for “MNDPADTLRATLADLVDGLPPRQAARAVERLIANYRGDTPTDAPILRDRADVVAYAAYRMPATFAAVRSALTAFAEAVPDWVPGSHLDVGGGTGAATWAVSDTWGGTRPVTVLDWAEPALVLGQEIAASLPALREARWRRSRIGAALDIESVELVTVSYVLNELTGSDRAALVDAAAGAARAVVIVEAGTPAGYARVVEARDRLIAAGFRVAAPCPHSAACPIEAGTDWCHFAARVSRSSLHRQVKSGSLAYEDEKFSYVAATRLPVEPAASRVVRRPQIRKGQVLLDLCASDERLRRSTVTKRHGDLYKAARDAAWGDPWPPGEDLEHHHHHH” it is “soluble”. The entry for “MGQLIDGVWHDTWYDTKSTGGKFQRSASAFRNWLTADGAPGPTGTGGFIAEKDRYHLYVSLACPWAHRTLIMRKLKGLEPFISVSVVNPLMLENGWTFDDSFPGATGDTLYQNEFLYQLYLHADPHYSGRVTVPVLWDKKNHTIVSNESAEIIRMFNTAFDALGAKAGDYYPPALQTKIDELNGWIYDTVNNGVYKAGFATSQEAYDEAVAKVFESLARLEQILGQHRYLTGNQLTEADIRLWTTLVRFDPVYVTHFKCDKHRISDYLNLYGFLRDIYQMPGIAETVNFDHIRNHYFRSHKTINPTGIISIGPWQDLDEPHGRDVRFGLEHHHHHH” is “soluble”; for “YKTPLLKALSAVGKAAVDVCRYFNPEVKKVVAYLGWEQEYFLVDEGLYAARPDLLLTGRTLMGHEASKNQQLEDHYFGAIPTRVAAFMKDLEIQALELGIPVKTRHNEVAPNQFELAPIFEECNLAVDHNMLLMSLMRKVARSHGFRLLLHEKPFKGVNGSGKHNNWSLGTDTGVLLMAPGKTAEDNLRFITFIVNTLMAVYHHNGLLKASIMSATNAHRLGANEAPPAIISSFLGKQLTQVLDHIEESGNDDLVSLAGKQGMKLDIPQIPELLIDNTDRNRTSPFAFTGNRFEFRAVGSEANCASAMIALNAAVAEQLARFKQDVDALIEKGEPKISAIIEIIRRYIKECKPVRFDGNGYSDEWKAEAAHRGLDCETSCPLIFDNYLKPASIAMFESTGVMTRKELEARNEVKWETYTKKIQIEARVLGDLAMNH” it is “not soluble”; for “MSLTAYLHIGTTNTGNQEKQGFLMQNEEKLLQKAYIYPKSLRVANRHWALVDMVLELVQKEDILKKESVLSHITNERLLRAIENFKSESALHKDKKFIFSAEGIVWDFSTKKHVEILEKIMRELGFTQIYIIVYFRDTLGYLNSHCSQDHKNNMGYYSADFAPQDHPRKYIFDYEWICKTHAEVFGEENLIVRLLREDYVGGTLLKDFVYHLGLEWDESFVLKQTKNESFNLLGMELMSRLNQKDLKQDNLNSLLFMARRKFEGSKEKRLKFAVQKDIAKAYVDYFASSLEWVKNKYFPHKNSLFTPVNWEEYEQNYTLTHMLSKDWDDVADFIAQIIVSKNEIISSLKEQLELAREGHHHHHH” it is “soluble”. In the case of “MNEKIEQAIREMGFKNFTEVQSKTIPLMLQGKNVVVRAKTGSGKTAAYAIPILELGMKSLVVTPTRELTRQVASHIRDIGRYMDTKVAEVYGGMPYKAQINRVRNADIVVATPGRLLDLWSKGVIDLSSFEIVIIDEADLMFEMGFIDDIKIILAQTSNRKITGLFSATIPEEIRKVVKDFITNYEEIEACIGLANVEHKFVHVKDDWRSKVQALRENKDKGVIVFVRTRNRVAKLVRLFDNAIELRGDLPQSVRNRNIDAFREGEYDMLITTDVASRGLDIPLVEKVINFDAPQDLRTYIHRIGRTGRMGRKGEAITFILNEYWLEKEVKKVSQKA”, the “soluble on expression in E. coli” value is recorded as “soluble”. The entry for “MLDGLVVGGGLAGLTAARVLTRAGRRVRVLEAAPEVGGRVRSRELEGFTLDAGFQVLFPAYPAVRRQLNLDALDLVPLPSAAALRRGAREDVLGSPLDDLASLPSTLKSGALTLGDKLRVARLAASLRTPAAHELLIGSDESTESFLRGQGFSEAALDHFFRPFFGGIFLRRDLATSARLFRYYFRMLMDGGAALPRRGMGELSRQLAQGSDLLTGVRVSRLLPRPGYVTAVTSAGEIDARQVIVATEAPTASDLTGEALSRGALSSTYLYYATPQRISGQHRLLLNAETGLINNAQWTSLAVPGRAPTGQHLLTVTVLGLPDLDDASLDARVRGELTRWYGAEAVGTLRLLMLERIPYAQFEQPAGYAATLPGHATSLPGVLLASEITSMSGIQGALESGEKAAAIVLGDLAALSRPRGALEHHHHHH” is “not soluble”. The entry for “GGDFREYRDLMDTQVVLGFEGRPYHARDFYAAQILSIILGGGMSSRLFQEVREKRGLCYSIYAFHWGFSDIGLFGLHAATGQEKLKELLPVILDELSKVSKNIHTNELQRARAQYRATLTMAQENPSSQANFIARQILLYGREIPLSETIERLELITPARLTDLAGRLFINATPTLAAVGPVGSLMNFDNLTSTL” is “not soluble”; for “MSLKKIANELGLSSTTVSRALNGYDDVAAETRERIIDAAKRLGYQPNSLARRLKMGRTDAIALAYPSRPRVLNNSTFLEMISWIGIELGKRGLDLLLIPDEPGEKYQSLIHLVETRRVDALIVAHTQPEDFRLQYLQKQNFPFLALGRSHLPKPYAWFDFDNHAGASLAVKRLLELGHQRIAFVSTDARISYVDQRLQGYVQTMSEAGLMPLAGYLQKADPTRPGGYLAASRLLALEVPPTAIITDCNMLGDGVASALDKAGLLGGEGISLIAYDGLPDDSLLDIAVTPIVQNTRTSVGKQIASMICDLLGGKDPKELQVLWQPEIGEGETEGHHHHHH” it is “soluble”; for “MLRAKLLSWQEGVGSKTFEFDVDVEPRSYVISKVSQLSPIIASEDLTVCEGEVAVVGTRVIEIPENTVVRPVAAISHANGFVADVIECGAPGMVEDEKCINHAVFIPTRSGDVKEGDLLGMLRINFVRTGLLSRVIPSKPRVEERTVKASLTWVEGGVFYRENVTGTFSGYFESERCSLLPIVADERVRIEKGGVSAVEIERVDVKGGSIITPYGLAANAFAQLLDLVGGRTRKFEEDRVFDEAVLVGFSDGVVEKGEVLGLVCVMGESSGGGNSRQLQFSRKAGKGVVKTIHEYRSKPLRVGRKGEWRPAISDENRKLIRGVAEIIKIRPINVPDYAVVNPLGIMRQAYGTMVGGIANEPWSLESRKTIEEVVFLPIMDGEVRKGQLIGVFNVTRVAEGKLLEHHHHHH” it is “soluble”.

The values are drawn from the DeepSol protein solubility set.
